{"source": "patent US20230212319A1", "about": "“NOVEL ANTIGEN BINDING DOMAINS AND SYNTHETIC ANTIGEN RECEPTORS INCORPORATING THE SAME” (University of Southern California, priority 2020, published 2023)", "format_in_all_cases": "cell-based", "key": {"RS;411": {"system": "RS;411", "experiment": "JNG assay, co-culture with RS;411 cells", "details": "co-culture with RS411", "how_it_was_run": "(§1)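 Jurkat-NFAT-GFP (JNG) cells stably expressing SAR constructs via lentiviral transduction and puromycin/blasticidin selection were cocultured with target cells at E:T ~1:2 for ~4–18 h. NFAT-driven GFP was measured by FACS versus parental JNG cells; scores +/- to 5+ denote ~5–50% GFP-positive cells.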"}, "RAJI cells": {"system": "RAJI cells", "experiment": "JNG assay, co-culture with RAJI cells", "details": "JNG cells expressing construct, co-culture with Raji", "how_it_was_run": "as §1"}, "Nalm6 cells": {"system": "Nalm6 cells", "experiment": "JNG assay, co-culture with Nalm6 cells", "details": "co-culture with Nalm6", "how_it_was_run": "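Read-out is % GFP-positive cells by flow cytometry after ~4–18 h co-culture (E:T ≈1:2) of target lines with SAR-transduced, puromycin/blasticidin-selected JNG cells. Grades +/-, +, 2+…5+ correspond to approximately 5%, 10%, 20%, 30%, 40%, 50% GFP+ over parental JNG controls.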"}, "U266 cells": {"system": "U266 cells", "experiment": "JNG NFAT-GFP induction on co-culture with U266"}, "L363 cells": {"system": "L363 cells", "experiment": "JNG assay, co-culture with L363 cells", "details": "co-culture with L363", "how_it_was_run": "as §1"}}, "data": [{"molecule": "22145 (protein) MALPVTALLLPLALLLHAARPACEVQLLESGGGLIQPGGSLRLSCAASGFTFSSHAMTWVRQAPGKGLEWVSAISGSGDYTHYADSVKGRFTISRDNSKNTVYLQMNSLRAEDSAVYYCAKDEDGGSLLGHRGQGTLVTVSSGTGGGGSGGGGSGGGGSEFDIQMTQSPSSLSASVGDRVTITCRASQDISNYLNWYQQKPGKAVKLLIYYTSILHSGVPSRFSGSGSGTDYTLTISSLQPEDFATYFCQQGNTLPWTFGGGTKVEIKLEGQPKANPTVTLFPPSSEELQANKATLVCLISDFYPGAVTVAWKADGSPVKAGVETTKPSKQSNNKYAASSYLSLTPEQWKSHRSYSCQVTHEGSTVEKTVAPTECSPIKTDVITMDPKDNCSKDANDTLLLQLTNTSAYYMYLLLLLKSVVYFAIITCCLLRRTAFCCNGEKSRAKRSGSGATNFSLLKQAGDVEENPGPTSATMDWIWRILFLVGAATGAHSGPQVQLQESGGGLAQAGGSLRLSCAASGRTFSMGWFRQAPGKEREFVAAITYSGGSPYYASSVRGRFTISRDNAKNTVYLQMNSLKPEDTAVYYCAANPTYGSDWNAENWGQGTQVTVSSGSGGGGSGGGGSGGGGSFEVQLVESGGGLVKPGGSLKLSCAASGFAFSIYDMSWVRQAPGKGLEWVAYISSGGGTTYYPDTVKGRFTISRDNAKNTLYLQMSSLRAEDTAMYYCARHSGYGSSYGVLFAYWGQGTLVTVSSTRASTKGPSVFPLAPSSKSTSGGTAALGCLVKDYFPEPVTVSWNSGALTSGVHTFPAVLQSSGLYSLSSVVTVPSSSLGTQTYICNVNHKPSNTKVDKRVEPKSCEVKTDSTDHVKPKETENTKQPSKSCHKPKAIVHTEKVNMMSLTVLGLRMLFAKTVAVNFLLTAKLFFLRAKRSGSGVKQTLNFDLLKLAGDVESNPGPSRGHMTEYKPTVRLATRDDVPRAVRTLAAAFADYPATRHTVDPDRHIERVTELQELFLTRVGLDIGKVWVADDGAAVAVWTTPESVEAGAVFAEIGPRMAELSGSRLAAQQQMEGLLAPHRPKEPAWFLATVGVSPDHQGKGLGSAVVLPGVEAAERAGVPAFLETSAPRNLPFYERLGFTVTADVEVPEGPRTWCMTRKPGA", "values": [{"measurement": "NFAT-GFP ASSAY: RS411", "setting": "RS;411", "value": "+ (refer to approximately 5%, 10%, 20%, 30%, 40% and 50% GFP positive cells)"}, {"measurement": "NFAT-GFP ASSAY: Raji", "setting": "RAJI cells", "value": "+/- (refer to approximately 5%, 10%, 20%, 30%, 40% and 50% GFP positive cells)"}, {"measurement": "NFAT-GFP ASSAY: Nalm6", "setting": "Nalm6 cells", "value": "+ (refer to approximately 5%, 10%, 20%, 30%, 40% and 50% GFP positive cells)"}, {"measurement": "NFAT-GFP ASSAY: U266", "setting": "U266 cells", "value": "2+ (refer to approximately 5%, 10%, 20%, 30%, 40% and 50% GFP positive cells)"}]}, {"molecule": "22135 (protein) MALPVTALLLPLALLLHAARPACEVQLLESGGGLIQPGGSLRLSCAASGFTFSSHAMTWVRQAPGKGLEWVSAISGSGDYTHYADSVKGRFTISRDNSKNTVYLQMNSLRAEDSAVYYCAKDEDGGSLLGHRGQGTLVTVSSGTGGGGSGGGGSGGGGSEFDIQMTQSPSSLSASVGDRVTITCKASDHINNWLAWYQQKPGQAPKLLIYGATTLETGVPSRFSGSGSGTDYTLTISSLQPEDFATYYCQQSWNTPWTFGQGTKLEIKRLEDLKNVFPPEVAVFEPSEAEISHTQKATLVCLATGFYPDHVELSWWVNGKEVHSGVCTDPQPLKEQPALNDSRYCLSSRLRVSATFWQNPRNHFRCQVQFYGLSENDEWTQDRAKPVTQIVSAEAWGRADCGFTSESYQQGVLSATILYEILLGKATLYAVLVSALVLMAMVKRKDSRGRAKRSGSGATNFSLLKQAGDVEENPGPTSATMDWIWRILFLVGAATGAHSGPEVQLVESGGGLVQAGGSLRLSCAASGRTFSMGWFRQAPGKEREFVAAITYSGGSPYYADSVKGRFTISRDNAKNTVYLQMNSLKPEDTAVYYCAANPTYGSDWNAENWGQGTQVTVSSGSGGGGSGGGGSGGGGSFEQVQLQQPGAELVKPGASVKMSCKASGYAFSSYWINWMKQKPGQGLEWIGQIYPGDGDTNYNGKFKGRATLTADTSSSTAYMQLSSLTSEDSAVYFCARSITTVVGCAMDYWGQGTSVTVSSTRIQNPDPAVYQLRDSKSSDKSVCLFTDFDSQTNVSQSKDSDVYITDKCVLDMRSMDFKSNSAVAWSNKSDFACANAFNNSIIPEDTFFPSPESSCDVKLVEKSFETDTNLNFQNLSVIGFRILLLKVAGFNLLMTLRLWSSRAKRSGSGVKQTLNFDLLKLAGDVESNPGPSRGHMTEYKPTVRLATRDDVPRAVRTLAAAFADYPATRHTVDPDRHIERVTELQELFLTRVGLDIGKVWVADDGAAVAVWTTPESVEAGAVFAEIGPRMAELSGSRLAAQQQMEGLLAPHRPKEPAWFLATVGVSPDHQGKGLGSAVVLPGVEAAERAGVPAFLETSAPRNLPFYERLGFTVTADVEVPEGPRTWCMTRKPGA", "values": [{"measurement": "NFAT-GFP ASSAY: RS411", "setting": "RS;411", "value": "2+ (refer to approximately 5%, 10%, 20%, 30%, 40% and 50% GFP positive cells)"}, {"measurement": "NFAT-GFP ASSAY: L363", "setting": "L363 cells", "value": "2+ (refer to approximately 5%, 10%, 20%, 30%, 40% and 50% GFP positive cells)"}, {"measurement": "NFAT-GFP ASSAY: U266", "setting": "U266 cells", "value": "3+ (refer to approximately 5%, 10%, 20%, 30%, 40% and 50% GFP positive cells)"}]}, {"molecule": "22221 (protein) MALPVTALLLPLALLLHAARPACEVQLLESGGGLIQPGGSLRLSCAASGFTFSSHAMTWVRQAPGKGLEWVSAISGSGDYTHYADSVKGRFTISRDNSKNTVYLQMNSLRAEDSAVYYCAKDEDGGSLLGHRGQGTLVTVSSGTGPQGIFGQPGYINEFDIQMTQSPSSLSASVGDRVTITCKASDHINNWLAWYQQKPGQAPKLLIYGATTLETGVPSRFSGSGSGTDYTLTISSLQPEDFATYYCQQSWNTPWTFGQGTKLEIKRLEDLKNVFPPEVAVFEPSKAEIAHTQKATLVCLATGFYPDHVELSWWVNGKEVHSGVCTDPQPLKEQPALNDSRYCLSSRLRVSATFWQNPRNHFRCQVQFYGLSENDEWTQDRAKPVTQIVSAEAWGRADCGITSASYHQGVLSATILYEILLGKATLYAVLVSALVLMAMVKRKDSRGRAKRSGSGATNFSLLKQAGDVEENPGPTSATMDWIWRILFLVGAATGAHSGPEVQLVESGGGLVQAGGSLRLSCAASGRTFSMGWFRQAPGKEREFVAAITYSGGSPYYADSVKGRFTISRDNAKNTVYLQMNSLKPEDTAVYYCAANPTYGSDWNAENWGQGTQVTVSSGSGGGGSGGGGSGGGGSFEQVQLQQPGAELVKPGASVKMSCKASGYAFSSYWINWMKQKPGQGLEWIGQIYPGDGDTNYNGKFKGRATLTADTSSSTAYMQLSSLTSEDSAVYFCARSITTVVGCAMDYWGQGTSVTVSSTRIQNPDPAVYQLRDSKSSDKSVCLFTDFDSQTNVSQSKDSDVYITDKCVLDMRSMDFKSNSAVAWSNKSDFACANAFNNSIIPEDTFFPSPESSCDVKLVEKSFETDTNLNFQNLSVIGFRILLLKVAGFNLLMTLRLWSSRAKRSGSGVKQTLNFDLLKLAGDVESNPGPSRGHMTEYKPTVRLATRDDVPRAVRTLAAAFADYPATRHTVDPDRHIERVTELQELFLTRVGLDIGKVWVADDGAAVAVWTTPESVEAGAVFAEIGPRMAELSGSRLAAQQQMEGLLAPHRPKEPAWFLATVGVSPDHQGKGLGSAVVLPGVEAAERAGVPAFLETSAPRNLPFYERLGFTVTADVEVPEGPRTWCMTRKPGA", "values": [{"measurement": "NFAT-GFP ASSAY: RS411", "setting": "RS;411", "value": "+ (refer to approximately 5%, 10%, 20%, 30%, 40% and 50% GFP positive cells)"}, {"measurement": "NFAT-GFP ASSAY: Nalm6", "setting": "Nalm6 cells", "value": "+ (refer to approximately 5%, 10%, 20%, 30%, 40% and 50% GFP positive cells)"}, {"measurement": "NFAT-GFP ASSAY: L363", "setting": "L363 cells", "value": "+ (refer to approximately 5%, 10%, 20%, 30%, 40% and 50% GFP positive cells)"}, {"measurement": "NFAT-GFP ASSAY: U266", "setting": "U266 cells", "value": "2+ (refer to approximately 5%, 10%, 20%, 30%, 40% and 50% GFP positive cells)"}]}]}
